Results from PMC9458431, “2′-O-Methylation of the second transcribed nucleotide within the mRNA 5′ cap impacts the protein production level in a cell-specific manner and contributes to RNA immune evasion”.

B1: cap2(A) RNA (ssRNA)
RNA: AGGGGAAGCGGGCAUGCGGCCAGCCA
modifications: m7Gppp-AmpGm (2'-O-Me at nt 1 and 2)
B2: cap1(A) RNA (ssRNA)
RNA: AGGGGAAGCGGGCAUGCGGCCAGCCA
modifications: m7Gppp-Am (2'-O-Me at nt 1)
B3: cap0(A) RNA (ssRNA)
RNA: AGGGGAAGCGGGCAUGCGGCCAGCCA
modifications: m7Gppp-A
B4: cap2-1(m6A) RNA (ssRNA)
RNA: AGGGGAAGCGGGCAUGCGGCCAGCCA
modifications: m7Gppp-m6ApGm
B5: cap2-1(A) RNA (ssRNA)
RNA: AGGGGAAGCGGGCAUGCGGCCAGCCA
modifications: m7Gppp-ApGm (2'-O-Me at nt 2 only)

Key:
Conditions in all cases: protein: recombinant
eIF4E (murine) [1] = target: T1, eIF4E (murine) (Mus musculus, UniProt P63073 28-217); experiment: MST competition; vs m7Gp5OC3(5)FAM; as cap0(A); MST: 50 mM HEPES-KOH pH 7.2, 100 mM KCl, 0.5 mM EDTA, 0.05% Tween-20, 25 C, 50 nM eIF4E, 10 nM probe; pull-down: 20 mM Tris-HCl pH 7.4, 150 mM NaCl, 2 mM MgCl2, 2 mM DTT, 0.2% IGEPAL, 4 C
eIF4E (murine) [2] = target: T1, eIF4E (murine); experiment: MST competition; vs 10 nM m7Gp5OC3(5)FAM; KD,app only in figure; MST: 50 mM HEPES-KOH pH 7.2, 100 mM KCl, 0.5 mM EDTA, 0.05% Tween-20, 25 C, 50 nM eIF4E, 10 nM probe; pull-down: 20 mM Tris-HCl pH 7.4, 150 mM NaCl, 2 mM MgCl2, 2 mM DTT, 0.2% IGEPAL, 4 C
eIF4E (murine) [3] = target: T1, eIF4E (murine); experiment: MST competition; vs m7Gp5OC3(5)FAM; not destabilized by m6A; MST: 50 mM HEPES-KOH pH 7.2, 100 mM KCl, 0.5 mM EDTA, 0.05% Tween-20, 25 C, 50 nM eIF4E, 10 nM probe; pull-down: 20 mM Tris-HCl pH 7.4, 150 mM NaCl, 2 mM MgCl2, 2 mM DTT, 0.2% IGEPAL, 4 C

T1 sequence (P63073 28-217): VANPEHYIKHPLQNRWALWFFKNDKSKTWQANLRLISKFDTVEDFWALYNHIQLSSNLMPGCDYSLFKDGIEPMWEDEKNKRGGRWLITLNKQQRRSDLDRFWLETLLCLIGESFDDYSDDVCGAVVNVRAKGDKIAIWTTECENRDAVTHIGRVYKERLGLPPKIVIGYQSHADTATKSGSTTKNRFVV

Binder	binding result (eIF4E (murine) [1])	other results
B1	binds	–
B2	binds	–
B3	–	binding result (eIF4E (murine) [2]): binds
B4	–	binding result (eIF4E (murine) [3]): binds
B5	binds	–
